Assay: protein stability index of a GFP-peptide fusion (GPS, HEK-293T) (PSI 1-6); higher = more stable
Conditions: c terminus: a fixed tail appended
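Further: lentivirally expressed fusions sorted by FACS into six bins by GFP to DsRed ratio, PSI derived from sequencing read proportions per bin multiplied by bin number.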

B1: IRX6 WT (peptide)
chain: YPCLEKPRIWSLAHTATASAVEGA
B1 showed a protein stability index (parent: IOH43040_58) of 2.44.

B2: TPPP WT (peptide)
chain: LCKDCQVIDGRNVTVTDVDIVFSK
In the case of B2, the protein stability index (parent: IOH43477_14) is reported as 2.25.

B3: SMTNL2 WT (peptide)
chain: ETAAGKGKGEARARLKRSQSFGVA
Work on B3 yielded a protein stability index (parent: IOH43320_31) of 4.31.

B4: GFOD1 WT (peptide)
chain: SDDFCTFQMVLEGGVCCTVTLNFN
Protein B4 has a protein stability index (parent: IOH42390_37) of 3.15.

B5: BTBD10 WT (peptide)
chain: DRKLHSRPRKLYKHSSTSSRIAKG
With B5 the protein stability index (parent: IOH43395_4) was 3.86.

B6: SCNN1D WT (peptide)
chain: FLGHHSFSVRPGTEATISIREDEV
B6 gave a protein stability index (parent: IOH42569_57) of 1.72.

B7: PLAGL1 WT (peptide)
chain: DPNKMAFGCEECGKKYNTMLGYKR
Protein B7 has a protein stability index (parent: IOH42591_15) of 2.34.

B8: SMTNL2 WT (peptide)
chain: AFTMAENLANCERLIEVEDMMVMG
Work on B8 yielded a protein stability index (parent: IOH43320_46) of 2.04.

B9: SMTNL2 WT (peptide)
chain: QKNFELAFTMAENLANCERLIEVE
In the case of B9, the protein stability index (parent: IOH43320_45) is reported as 1.84.

B10: PLAGL1 WT (peptide)
chain: EKPPSGTKEKKHQCDHCERCFYTR
Protein B10 has a protein stability index (parent: IOH42591_25) of 3.58.

B11: SCNN1D WT (peptide)
chain: FYRLYQDLETHRLPCTSRCPRPCR
With B11 the protein stability index (parent: IOH42569_73) was 2.21.

B12: PLAGL1 WT (peptide)
chain: LELGSTEVLLDHLKAHAEEKPPSG
In the case of B12, the protein stability index (parent: IOH42591_22) is reported as 4.44.

B13: INTS3 WT (peptide)
chain: EEITEESLEESVGKPLYLIFRNLC
For B13, the protein stability index (parent: IOH41890_107) was 2.68.

B14: INTS3 WT (peptide)
chain: YPPLEGHVRQGVFSSLNHIVEKRV
Work on B14 yielded a protein stability index (parent: IOH41890_75) of 2.53.

B15: INTS3 WT (peptide)
chain: DLNSKGKKREFRFHPIKETVVEEP
With B15 the protein stability index (parent: IOH41890_91) was 2.23.

B16: GFOD1 WT (peptide)
chain: EEAEELAKEMSVPFYTSRIDEVLL
For B16, the protein stability index (parent: IOH42390_7) was 3.76.

B17: INTS3 WT (peptide)
chain: AQLQALRQKEVDFCISLLRERFME
For B17, the protein stability index (parent: IOH41890_38) was 2.31.

B18: SPACA3 WT (peptide)
chain: FTSGFNAAALDYEADGSTNNGIFQ
Work on B18 yielded a protein stability index (parent: IOH42995_21) of 1.89.

B19: SCNN1D WT (peptide)
chain: IRVMVHGRNHTPFLGHHSFSVRPG
In the case of B19, the protein stability index (parent: IOH42569_55) is reported as 2.25.

B20: BTBD10 WT (peptide)
chain: FVYENAKEGARNIRTSERVTLIVD
For B20, the protein stability index (parent: IOH43395_26) was 1.94.

B21: TTC32 WT (peptide)
chain: YSAYIRRCACAASSDESPGSKCSP
With B21 the protein stability index (parent: IOH43157_6) was 1.99.

B22: INTS3 WT (peptide)
chain: KKREFRFHPIKETVVEEPVDITPY
With B22 the protein stability index (parent: IOH41890_92) was 1.94.

B23: SCNN1D WT (peptide)
chain: RRPSPVLRHLELLDEFARENIDSL
With B23 the protein stability index (parent: IOH42569_24) was 2.6.

B24: INTS3 WT (peptide)
chain: FSDDEEDLNSKGKKREFRFHPIKE
Work on B24 yielded a protein stability index (parent: IOH41890_90) of 2.85.

B25: PLAGL1 WT (peptide)
chain: CKDFLCQFCAQRFGRKDHLTRHTK
Protein B25 has a protein stability index (parent: IOH42591_31) of 2.02.

B26: INTS3 WT (peptide)
chain: FHPIKETVVEEPVDITPYLDQLDE
Protein B26 has a protein stability index (parent: IOH41890_93) of 3.32.

B27: PLAGL1 WT (peptide)
chain: TKEKKHQCDHCERCFYTRKDVRRH
B27 showed a protein stability index (parent: IOH42591_26) of 3.45.
